These results are taken from publication PMC12147174, “PEX1^G843D remains functional in peroxisome biogenesis but is rapidly degraded by the proteasome” (The Journal of Biological Chemistry, 2025).

For assay [1], the target named is T1, ScPex1^G700D (Pex1-FLAG G700D), Saccharomyces cerevisiae (Saccharomyces cerevisiae, UniProt P24004 1-1043, G700D).
T1 construct: Pex1, Saccharomyces cerevisiae, with G700D (homologous to human G843D); source: E. coli BL21, coexpressed with His-Pex6, purified (Ni-NTA, anti-FLAG M2 agarose, Superose 6)
T1 sequence (looked up): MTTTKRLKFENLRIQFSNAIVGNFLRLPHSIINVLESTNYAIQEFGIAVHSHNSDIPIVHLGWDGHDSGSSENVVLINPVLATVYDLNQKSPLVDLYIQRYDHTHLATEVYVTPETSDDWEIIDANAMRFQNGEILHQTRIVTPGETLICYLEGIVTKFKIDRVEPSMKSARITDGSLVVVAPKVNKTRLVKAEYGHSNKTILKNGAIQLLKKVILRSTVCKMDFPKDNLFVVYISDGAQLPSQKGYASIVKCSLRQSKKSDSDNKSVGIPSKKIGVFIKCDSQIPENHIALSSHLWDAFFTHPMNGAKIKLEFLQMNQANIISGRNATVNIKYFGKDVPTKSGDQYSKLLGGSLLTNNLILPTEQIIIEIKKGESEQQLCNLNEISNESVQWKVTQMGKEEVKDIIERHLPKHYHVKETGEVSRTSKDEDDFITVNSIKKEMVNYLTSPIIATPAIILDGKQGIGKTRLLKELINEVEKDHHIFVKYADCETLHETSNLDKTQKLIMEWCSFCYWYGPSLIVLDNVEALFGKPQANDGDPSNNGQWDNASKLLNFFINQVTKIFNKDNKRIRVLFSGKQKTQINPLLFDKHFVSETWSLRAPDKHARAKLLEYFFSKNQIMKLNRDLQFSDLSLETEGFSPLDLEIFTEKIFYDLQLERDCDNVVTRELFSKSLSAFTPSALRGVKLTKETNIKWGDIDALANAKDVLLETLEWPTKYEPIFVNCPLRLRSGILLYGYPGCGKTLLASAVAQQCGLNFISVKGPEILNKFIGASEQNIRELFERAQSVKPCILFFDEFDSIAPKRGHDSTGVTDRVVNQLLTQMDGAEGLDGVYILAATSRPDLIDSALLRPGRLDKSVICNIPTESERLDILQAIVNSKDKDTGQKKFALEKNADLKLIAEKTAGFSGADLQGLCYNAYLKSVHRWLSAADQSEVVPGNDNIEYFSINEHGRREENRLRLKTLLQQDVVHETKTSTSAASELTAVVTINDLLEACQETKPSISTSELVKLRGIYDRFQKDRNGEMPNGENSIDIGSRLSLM
Nature of the assay: SEC; coexpressed complex purified by Ni-NTA and anti-FLAG resin, equal concentrations of FLAG eluate loaded on Superose 6 in GF buffer (50-60 mM Hepes pH 7.6, 50 mM NaCl, 50 mM KCl, 5% glycerol, 10 mM MgCl2, 1 mM ATP); fractions by SDS-PAGE and Coomassie. The conditions noted are these: both partners purified. In general terms: In gel filtration, larger molecules generally elute earlier.

The target in assay [2] is T2, ScPex1^WT (Pex1-FLAG), Saccharomyces cerevisiae (Saccharomyces cerevisiae, UniProt P24004 1-1043).
T2 construct: Pex1, Saccharomyces cerevisiae; Expressed from pETDuet; Forms a heterohexamer with Pex6; also called yeast Pex1; source: E. coli BL21, coexpressed with His-Pex6, purified (Ni-NTA, anti-FLAG M2 agarose, Superose 6)
T2 sequence (looked up): T1 sequence (looked up) with D700G
The description is as above. The settings on record: both partners purified.

Positions count from the first letter of the chain named.

B1: ScPex6 (His-Pex6), Saccharomyces cerevisiae (natural protein)
chain: MKASLTFSLSGIYAPCSISRDIYLEYGDKKAECLYGTIRLPQYGPGCTPGKIVHCVLDDSLPFCSIVVPSKLFGFMPTQPTMDFCYFEPILDNVVPVLDSVTFLINEQLYSKLMDLPQEMQQIQFLHYKYNINSMETVVHSRDILTSGLCQILNCSPFPQGLVDFTETQLILVNDTEQKLSALKYANEDEEYALPKIGTNSALSIDLESLPCTISRDLLRPAPHINDDNSIYAFTDAETLLRLDVTSGSFITVSNMGCVRLVKLFVLLLPNGFKKRTIYAPPKIIASFPDCSVVTISKSNIGHTDIPIANQVFISRVGGWLQSQKCFQNIILTTLKKFFSESKRILCQNDLIPIAFDSSMADLNIAEENDESDDEDELGQYYKNDSLVWFFVTSAELDCFSKDNSHFIIDPNRTKLITTNITNRRPLPLSRSNLQRYYGFAETFYYDLHIFPYVRQLVNILETSFNCSQRGITLNASVLLHSTTNNVGKATMVRFASKYLGIHLLEIDCLSLTSNSRQLDSTSKIIGYIRAKCENVLPYASPAVIFLAHLDSILLDVNANQDPEAIKLQKSINFEMSKLLDDFTFKFPGTTFVGSVNNIDNVPSSFRSHMRFEILVPVPSEAQRLRIFQWYLSSHELNRDVQQKVPVSYMDNISFSSLSSYSAGLTPLDIKSIVETARMTATARFYQESKKCGWLPQSILITQEDLSKATSKARNEFSVSIGAPQIPNVTWDDIGGIDFVKGEILDTIDMPLKHPELFTSGMKKRSGILFYGPPGTGKTLMAKAIATNFSLNFFSVKGPELLNMYIGESEANVRRVFQKAREAKPCVIFFDEIDSVAPKRGNQGDSGGVMDRIVSQLLAELDGMSTDADGVFVIGATNRPDLLDEALLRPGRFDKLLYLGIPDTDTKQLNILEALTRKFVLDNDVKLIELAKLCPFNYTGADFYALCSDAMLNAMSRIARMVEKKVSQHNELTGENISTRRWFDKIATKEDTKVVVKMEDFLKAQEQLTPSVSRAELNHYEAVRANFEGA
notes: Pex6, Saccharomyces cerevisiae; Expressed from pCOLADuet; source: E. coli BL21, coexpressed with Pex1-FLAG, purified (Ni-NTA, anti-FLAG M2 agarose, Superose 6)
Regarding B1, the binding result in assay [1] and in assay [2] was “binds” in each case.
